Patent US20240252614A1 (Pfizer, published 2024)

Key:
[1] = molecular target: T1, PIV1 F literature prefusion comparison (PIV1); assay: BLI, no stress
T1 construct: F113G, F114S, A466I, S473I (Stewart-Jones et al. 2018)
Experimental: (§1) Conformation integrity of PIV1 F protein mutants were evaluated by a thermal stress experiment. Crude cell culture supernatants were normalized based on the results of the titer quantitation and then incubated for 1 hour at room temperature and two higher temperatures. For the initial testing of PIV1 mutants, the two temperatures were 50° C. and 53° C. […] Anti-Human IgG Fc Capture (AHC) biosensors were first equilibrated in PB for before being dipped into more PB to establish the initial baseline. […] The mAb-bound biosensors were then dipped into the thermal stresses cell culture supernatants for 5 minutes.

PIV1069 [2] = molecular target: T2, PIV1069 (PIV1); assay: BLI, no stress
T2 construct: F113G, F114S, A466L, S473L, G134A
Experimental: as §1

PIV1070 [3] = molecular target: T3, PIV1070 (PIV1); assay: BLI, no stress
T3 construct: F113G, F114S, A466I, S473I, G134A
Experimental: as §1

PIV1042 = molecular target: T4, PIV1042 (PIV1); assay: BLI, 56C stress;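 also: binding of thermally stressed PIV1 F mutant supernatant to mAb on AHC biosensors for 5 min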
T4 construct: Q92A
Experimental: (§2) All measurements were conducted at 30° C. temperature in 96-well black plates (Corning, Corning, NY) with a final volume of 240 μL per well at a constant agitation rate of 1000 RPM.
as §1

PIV1043 = molecular target: T5, PIV1043 (PIV1); assay: BLI, 56C stress;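 also: binding of thermally stressed PIV1 F mutant supernatant to mAb on AHC biosensors for 5 min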
T5 construct: Q92A, G134A
Experimental: as §2, §1

PIV1044 = molecular target: T6, PIV1044 (PIV1); assay: BLI, 56C stress;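 also: binding of thermally stressed PIV1 F mutant supernatant to mAb on AHC biosensors for 5 min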
T6 construct: Q92L
Experimental: as §2, §1

PIV1045 = molecular target: T7, PIV1045 (PIV1); assay: BLI, 56C stress;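 also: binding of thermally stressed PIV1 F mutant supernatant to mAb on AHC biosensors for 5 min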
T7 construct: Q92L, G134A
Experimental: as §2, §1

PIV1046 = molecular target: T8, PIV1046 (PIV1); assay: BLI, 56C stress
T8 construct: A466V, S473V
Experimental: as §2, §1

[4] = molecular target: T1, PIV1 F literature prefusion comparison; assay: BLI, 53C stress
Experimental: (§3) The OCTET HTX (Sartorius, Gottingen, Germany) instrument was used to evaluate the expression and conformational integrity for each mutant. All measurements were conducted at 30° C. temperature in 96-well black plates (Corning, Corning, NY) with a final volume of 240 μL per well at a constant agitation rate of 1000 RPM.
as §1

PIV1069 [5] = molecular target: T2, PIV1069; assay: BLI, 53C stress
Experimental: as §3, §1

PIV1070 [6] = molecular target: T3, PIV1070; assay: BLI, 53C stress
Experimental: as §3, §1

[7] = molecular target: T9, stabilized hPIV1 F protein trimer in pre-fusion conformation (human parainfluenza virus 1); assay: ELISA, F protein coated
T9 construct: also called preF-hPIV1; HPIV1 pre-fusion F protein
Experimental: (§4) Briefly, 96-well microtiter plates were coated with 100 μL/well of individual F protein at 2 μg/mL, and then incubated at 4° C. overnight. After washing with 0.01M TBS/0.1% Brij-35, the plates were blocked with 5% non-fat milk for 1 hr at RT. […] After 3 washes with 0.01M TBS/0.1% Brij-35, 100 μL/well of secondary antibody (HRP-anti-human Fc) in a 1:3000 dilution was added to the plates and incubated for 1 hr RT. After 3 washes with 0.01M TBS/0.1% Brij-35, 100 μL/well of TMB-ELISA Substrate Solution was added to the plates. The reaction was stopped with addition of 100 μL/well of 2N H2SO4 after 2 minutes. The plates were then read on a SpectraMax microplate reader with SoftMax Pro software at OD 450 nm (Molecular Devices). The data was analyzed with Graphpad Prism software.

hMPV044 = molecular target: T10, hMPV044 (hMPV A, UniProt Q6WB98 19-102); assay: BLI, 53C stress
T10 construct: T411C-Q434C
Experimental: as §3
Conformation integrity of hMPV A F protein mutants were evaluated by thermal stress experiments. Crude cell culture supernatants were normalized based on the results of the titer quantitation and then incubated for 1 hour at room temperature and two higher temperatures. […] Anti-Human IgG Fc Capture (AHC) biosensors were first equilibrated in PB before being dipped into more PB to establish the initial baseline. […] The mAb-bound biosensors were then dipped into the thermal stressed cell culture supernatants for 5 minutes. The kinetics analysis was done by OCTET data analysis software (version 12.0, Sartorius) based on curve fitting of the entire associate step.

hMPV B F WT Control = hMPV B F WT Control (hMPV B, UniProt Q6WB98 19-102); assay: BLI, 56C stress
Experimental: as §2
(§5) Conformation integrity of hMPV B F protein mutants were evaluated by a thermal stress experiment. Crude cell culture supernatants were normalized based on the results of the titer quantitation and then incubated for 1 hour at room temperature and two higher temperatures. For the testing of hMPV B single mutants, the two temperatures were 53° C. and 56° C. After the incubation, the protein mutants were probed with prefusion specific monoclonal antibody hMPV-2 by OCTET HTX. Anti-Human IgG Fc Capture (AHC) biosensors were first equilibrated in PB before being dipped into more PB for to establish the initial baseline. Biosensors were incubated with hMPV-2 before being equilibrated in PB to establish the experimental baseline. The mAb-bound biosensors were then dipped into the thermal stresses cell culture supernatants for 5 minutes.

hMPV119 = molecular target: T11, hMPV119 (hMPV B, UniProt Q6WB98 19-102); assay: BLI, 56C stress
T11 construct: T49I, T150C-R156C, A459P
Experimental: as §2, §5

hMPV120 = molecular target: T12, hMPV120 (hMPV B, UniProt Q6WB98 19-102); assay: BLI, 56C stress
T12 construct: A140C-S149C, T411C-Q434C
Experimental: as §2, §5

hMPV121 = molecular target: T13, hMPV121 (hMPV B, UniProt Q6WB98 19-102); assay: BLI, 56C stress
T13 construct: L141C-A161C, T411C-Q434C
Experimental: as §2, §5

hMPV123 = molecular target: T14, hMPV123 (hMPV B, UniProt Q6WB98 19-102); assay: BLI, 56C stress
T14 construct: A140C-S149C, G239A, T411C-Q434C
Experimental: as §2, §5

hMPV124 = molecular target: T15, hMPV124 (hMPV B, UniProt Q6WB98 19-102); assay: BLI, 56C stress
T15 construct: L141C-A161C, T411C-Q434C, A459P
Experimental: as §2, §5

hMPV125 = molecular target: T16, hMPV125 (hMPV B, UniProt Q6WB98 19-102); assay: BLI, 56C stress
T16 construct: L141C-A161C, G239A, T411C-Q434C
Experimental: as §2, §5

hMPV126 = molecular target: T17, hMPV126 (hMPV B, UniProt Q6WB98 19-102); assay: BLI, 56C stress
T17 construct: T49I, T150C-R156C, G239A, A459P
Experimental: as §2, §5

hMPV128 = molecular target: T18, hMPV128 (hMPV B, UniProt Q6WB98 19-102); assay: BLI, 56C stress
T18 construct: T49I, A140C-S149C, G239A, T411C-Q434C, A459P
Experimental: as §2, §5

hMPV129 = molecular target: T19, hMPV129 (hMPV B, UniProt Q6WB98 19-102); assay: BLI, 56C stress
T19 construct: T49I, A140C-S149C, G239A, T365I, T411C-Q434C, A459P
Experimental: as §2, §5

hMPV130 = molecular target: T20, hMPV130 (hMPV B, UniProt Q6WB98 19-102); assay: BLI, 56C stress
T20 construct: L141C-A161C, G239A, T411C-Q434C, A459P
Experimental: as §2, §5

hMPV133 = molecular target: T21, hMPV133 (hMPV B, UniProt Q6WB98 19-102); assay: BLI, 56C stress
T21 construct: T49I, L141C-A161C, S149T, G239A, T411C-Q434C, A459P
Experimental: as §2, §5

hMPV134 = molecular target: T22, hMPV134 (hMPV B, UniProt Q6WB98 19-102); assay: BLI, 56C stress
T22 construct: T49I, L141C-A161C, S149T, G239A, T365I, T411C-Q434C, A459P
Experimental: as §2, §5

hMPV136 = molecular target: T23, hMPV136 (hMPV B, UniProt Q6WB98 19-102); assay: BLI, 56C stress
T23 construct: A140C-S149C, A459P
Experimental: as §2, §5

hMPV137 = molecular target: T24, hMPV137 (hMPV B, UniProt Q6WB98 19-102); assay: BLI, 56C stress
T24 construct: T49I, A140C-S149C
Experimental: as §2, §5

hMPV138 = molecular target: T25, hMPV138 (hMPV B, UniProt Q6WB98 19-102); assay: BLI, 56C stress
T25 construct: T49I, A140C-S149C, A459P
Experimental: as §2, §5

hMPV140 = molecular target: T26, hMPV140 (hMPV B, UniProt Q6WB98 19-102); assay: BLI, 56C stress
T26 construct: T49I, L141C-A161C, T411C-Q434C, A459P
Experimental: as §2, §5

hMPV142 = molecular target: T27, hMPV142 (hMPV B, UniProt Q6WB98 19-102); assay: BLI, 56C stress
T27 construct: L141C-A161C, S149T, A459P
Experimental: as §2, §5

hMPV144 = molecular target: T28, hMPV144 (hMPV B, UniProt Q6WB98 19-102); assay: BLI, 56C stress
T28 construct: T49I, L141C-A161C, S149T, A459P
Experimental: as §2, §5

[8] = molecular target: T29, stabilized hMPV F protein trimer in pre-fusion conformation (human metapneumovirus); assay: ELISA, F protein coated
T29 construct: also called preF-hMPV; hMPV pre-fusion F protein
Experimental: as §4

B1: PIV1-8 mAb (antibody, V domains shown)
VH: QVQLVQSGAEVKKPGSSVKVSCEASGGTFSNYVISWVRQAPGQGLEWMGGIIPVFATAKYAQKFQGRVTIIADQSTNTAYLELSSLRSDDTAVYFCASVDSGGTWWDAFAIWGQGTMVTVSS
VL: QAVVTQPRSVSGSPGQAVTISCTGTSSDVGGYNYVSWYQHHPGKAPKLIIYDVTKRPSGVPDRFSGSKSGNTASLTISGLQTEYEADYYCCSYAGSYTLVFGGGTKLTVLG
notes: human IgG1; also called hPIV1-8 mAb; hPIV1-8
Response Shift [1]: 0.769 nm
Response Shift (PIV1069 [2]): 0.857 nm
Response Shift (PIV1070 [3]): 0.876 nm
Response Shift (PIV1042): -0.103 nm
Response Shift (PIV1043): -0.102 nm
Response Shift (PIV1044): -0.122 nm
Response Shift (PIV1045): -0.095 nm
Response Shift (PIV1046): -0.091 nm
Response Shift [4]: 0.717 nm
Response Shift (PIV1069 [5]): 0.847 nm
Response Shift (PIV1070 [6]): 0.84 nm
EC50 [7]: 0.103 nM

B2: hMPV-2 mAb (antibody, V domains shown)
VH: QVQLQQSGAEVKKPGASVKVSCKASGYTFTSYGISWVRQAPGQGLEWMGWISGYNGNTNYAQTFQGTFTMTTDTSTSTAYMELRRLRSGDTAVYYCARDRYYASGSYNGMDVWGQGTTVTVSS
VL: QSALTQPPSASGAPGQRVTVSCSGSSSNVGSSSVYWYQQLPGTAPKLLIYRNNQRPSGVPDRFSGSKSGTSASLAISGLRSEDEADYYCAAWDDSLSGWVFGGGTKLTVLG
notes: human IgG1
Response Shift (hMPV044): 0.618 nm
Response Shift (hMPV B F WT Control): 0.122 nm
Response Shift (hMPV119): 0.828 nm
Response Shift (hMPV120): 0.564 nm
Response Shift (hMPV121): 0.794 nm
Response Shift (hMPV123): 0.559 nm
Response Shift (hMPV124): 0.766 nm
Response Shift (hMPV125): 0.785 nm
Response Shift (hMPV126): 0.73 nm
Response Shift (hMPV128): 0.769 nm
Response Shift (hMPV129): 0.632 nm
Response Shift (hMPV130): 0.62 nm
Response Shift (hMPV133): 0.616 nm
Response Shift (hMPV134): 0.665 nm
Response Shift (hMPV136): 0.541 nm
Response Shift (hMPV137): 0.626 nm
Response Shift (hMPV138): 0.663 nm
Response Shift (hMPV140): 0.66 nm
Response Shift (hMPV142): 0.706 nm
Response Shift (hMPV144): 0.67 nm
EC50 [8]: 0.097 nM
